Here are results for two molecules from patent CN117396506A (NOVARTIS AG, dated 2024).

One test addresses T1, 重组人IL-1β (human, UniProt P01584 117-269).
T1 construct: In the LPS/IL-12 assays the IL-1β is the native cytokine made by the blood cells; also called huIL-1β; IL-1b
As to the kind of experiment: solution equilibrium titration (SET), single-target binding assay, MSD ECL read-out; mean KD.

For a further test, the target named is T2, 重组人IL-18 (human, UniProt Q14116 37-193).
T2 construct: In the LPS/IL-12 assays the IL-18 is the native cytokine made by the blood cells; also called huIL-18; human IL-18
As to the kind of experiment: SET, single-target binding assay.

As a reminder, the Kd is the free concentration of one partner at which half of the binding sites on the other are occupied at equilibrium, for simple one-to-one binding.

B1: mAb2 (antibody, human IgG1, kappa, V domains shown)
VH: QVQLVESGGGVVQPGRSLRLSCAASGFTFSVYGMNWVRQAPGKGLEWVAIIWYDGDNQYYADSVKGRFTISRDNSKNTLYLQMNGLRAEDTAVYYCARDLRTGPFDYWGQGTLVTVSS
VL: EIVLTQSPDFQSVTPKEKVTITCRASQSIGSSLHWYQQKPDQSPKLLIKYASQSFSGVPSRFSGSGSGTDFTLTINSLEAEDAAAYYCHQSSSLPFTFGPGTKVDIKR
notes: Human anti-IL-1β antibody, bivalent mAb; also called IL-1β抗体mAb2
With B1, in the test with 重组人IL-1β, the Kd was determined as 0.6 pM.

B2: mAb1 (antibody, human IgG1, lambda, L234A L235A, V domains shown)
VH: EVQLVQSGAEVKKPGSSVKVSCKASGGTFKSYAISWVRQAPGQGLEWMGNIIPMTGQTYYAQKFQGRVTITADESTSTAYMELSSLRSEDTAVYYCARAAYHPLVFDNWGQGTLVTVSS
VL: DIVLTQPPSVSGAPGQRVTISCSGSSSNIGNHYVNWYQQLPGTAPKLLIYRNNHRPSGVPDRFSGSKSGTSASLAITGLQSEDEADYYCQSWDYSGFSTVFGGGTKLTVLG
notes: Human anti-IL-18 antibody, bivalent mAb; also called IL-18抗体mAb1
B2: the binding result with 重组人IL-18 is recorded as “binds”.
